From US20240043548A1, “PREPARATION AND USE OF ANTI-FSHR ANTIBODY AND ANTIBODY-DRUG CONJUGATE THEREOF” (CANWELL (GZ) BIOTECH LIMITED, priority 2020, published 2024) come the findings set out here.

One may read the IC50 as the point on the concentration scale where inhibition reaches its midpoint. Read a low IC50 as greater potency.

Where a SMILES comes first, the peptide text is derived from it. [ ]: non-standard residue; d: D form. Dolaproine = CO[C@@H]([C@@H]1CCCN1)[C@@H](C)C(=O)O; Dil = CC[C@H](C)[C@H](NC)[C@@H](CC(=O)O)OC; NMeV = CN[C@H](C(=O)O)C(C)C

One test relates to OVCAR-3. Put plainly: Cell killing assay, OVCAR-3. The test is classed as cell-based. The note with it: OVCAR-3 human ovarian cancer cell line. As for the experimental part: (§1) In this example, the anti-cancer effect of CAN001 antibody-drug conjugate was tested with CellTiter-Glo cell viability assay in a 96-well plate.
(§2) Human ovarian cancer cell lines: OVCAR-3, A2780, and 3A0, all from ATCC.
(§3) Cells were seeded in a 96-well cell culture plate with 1,000 cells per well, and the total amount of the culture medium per well was controlled to 200 μL. After the cells adhered to the wall, the cells were treated with corresponding drugs, and the drugs were withdrawn at different time points (0, 24 h, 48 h, 72 h and 96 h), and MTS detection solution (10 μL MTS reagent+190 μL complete medium) (MTS cell proliferation kit (colorimetry) from AmyJet Scientific) was added. Then, the 96-well cell culture plate was incubated in a CO2 cell incubator for about 2 h away from light. Then, the cell culture plate was taken out and was measured at a wavelength of 492 nm to determine the absorbances of different groups of cells.
(§4) % inhibition and IC50 of each compound were calculated with XLFit curve fitting software.

In a further test the test system is 3AO. The experiment in a line: Cell killing assay, 3AO. To be noted: 3AO human ovarian cancer cell line. The test is classed as cell-based. As to the method: as §1, §2, §3, §4
For another test, the system named is A2780. Put plainly: Cell killing assay, A2780. The class given is cell-based. To be noted: A2780 human ovarian cancer cell line. As for the experimental part: as §1, §2, §3, §4
A further test has as its target T1, human FSHR (Homo sapiens, UniProt P23945).
T1 construct: a fragment containing the FSHR gene was obtained by PCR with the cDNA as a template and FSHR-F and FSHR-R as primers; expressed in transfected cells; host or cells: HEK293T
T1 sequence (P23945 18-695): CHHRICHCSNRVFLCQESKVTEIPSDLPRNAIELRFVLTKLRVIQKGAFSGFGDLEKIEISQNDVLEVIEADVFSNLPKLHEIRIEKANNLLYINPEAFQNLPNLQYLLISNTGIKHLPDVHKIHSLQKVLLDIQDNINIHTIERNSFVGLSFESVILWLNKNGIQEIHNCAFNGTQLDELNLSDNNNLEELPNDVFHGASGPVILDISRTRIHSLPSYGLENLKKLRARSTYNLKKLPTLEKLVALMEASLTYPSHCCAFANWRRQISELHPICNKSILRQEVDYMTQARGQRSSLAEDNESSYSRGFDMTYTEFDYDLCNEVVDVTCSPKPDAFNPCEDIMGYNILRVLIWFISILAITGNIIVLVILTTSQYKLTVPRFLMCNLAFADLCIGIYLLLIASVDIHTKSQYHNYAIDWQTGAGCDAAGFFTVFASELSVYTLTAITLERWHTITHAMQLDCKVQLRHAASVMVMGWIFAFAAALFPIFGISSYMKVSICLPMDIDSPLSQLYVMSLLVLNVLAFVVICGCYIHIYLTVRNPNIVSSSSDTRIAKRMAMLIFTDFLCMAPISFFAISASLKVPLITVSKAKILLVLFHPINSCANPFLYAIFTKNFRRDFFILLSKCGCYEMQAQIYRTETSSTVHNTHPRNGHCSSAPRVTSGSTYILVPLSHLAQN
Put plainly: Flow cytometry analysis of CAN001 antibody on HEK293T cells expressing FSHR. The test is classed as binding. To be noted: for positive stained rate of the HEK293T cells: HEK293T cells expressing FSHR. As for the experimental part: HEK293T cells were transfected with pMSGβ3_FSHR plasmid to obtain HEK293T cells expressing FSHR as the experimental group. HEK293T cells were transfected with pmaxGFP(Lonza) to obtain HEK293T cells expressing GFP protein as the negative control. After incubation with the supernatant containing the CAN001 antibody obtained in Example 3, the cells of the experimental group and negative control were stained with the CAN001 antibody and then the cells were washed and incubated with APC conjugated goat anti-mouse IgG secondary antibody. Flow cytometry was done with BD calibur and analyzed with Cellquest software.
In order to further screen the best CAN001 supernatant, HEK293T cells were co-transfected with a mixture of plasmids pcDNA3.1_CAN001 HC and pcDNA3.1_CAN001 LC with different proportions (mass ratios of pcDNA3.1_CAN001 HC to pcDNA3.1_CAN001 LC from left to right in FIG. 3 were 1:2, 1:1 and 1:3 respectively) and 25 kD linear PEI polymer according to a mass ratio of vector to polymer of 1:3. Seventy-two hours after transfection, the supernatant was collected and used to stain HEK293T cells expressing FSHR, and HEK293T cells expressing GFP protein were used as the negative control. The steps were as described above. […] The mass ratio of pcDNA3.1_CAN001 HC to pcDNA3.1_CAN001 LC of 1:2 was selected to prepare the supernatant containing CAN001 antibody.
Background: Flow cytometry measures light scatter and fluorescence of single cells or particles in a stream.

On to `CC[C@H](C)[C@@H]([C@@H](CC(=O)N1CCC[C@H]1[C@H](OC)[C@@H](C)C(=O)N[C@@H](Cc1ccccc1)C(=O)O)OC)N(C)C(=O)[C@@H](NC(=O)[C@@H](NC)C(C)C)C(C)C` [MMAF, monomethylauristatin F] (H-[NMeV]V[Dil][Dolaproine]F-OH), for which the results for the IC50 with OVCAR-3, in the test with 3AO and in the test with A2780 were 205 nM, 301 nM and 223 nM, respectively.

B1: CAN001: Mouse anti-human FSHR monoclonal antibody; light chain SEQ ID NO: 3, heavy chain SEQ ID NO: 4 (protein)
light: MALPVTALLLPLALLLHAARPQIVLTQSPVIMSASPGEKVTLTCSASSSVSSSYLYWYQQKPGSSSKLWIYSTSNLASGVPARFSGSGSGTSYSLTISSMEAEDAASYFCHQWSSYPPTFGGGTKLEIKRADAAPTVSIFPPSSEQLTSGGASVVCFLNNFYPKDINVKWKIDGSERQNGVLNSWTDQDSKDSTYSMSSTLTLTKDEYERHNSYTCEATHKTSTSPIVKSFNRNEC
heavy: MEFGLSWVFLVALFRGVQCASQVQLQQPGAELVKPGASVNLSCKASGYTFTSYWMHWVKQRPGQGREWIGEINPRNGRTNYNEKFKSKATLTVDKSSSTAYMQLSSLTSEDSAVYCCARLSVGFAYWGQGTLVTVSAAKTTAPSVYPLAPVCGDTTGSSVTLGCLVKGYFPEPVTLTWNSGSLSSGVHTFPAVLQSDLYTLSSSVTVTSSTWPSQSITCNVAHPASSTKVDKKLEPRGPTIKPCPPCKCPAPNAAGGPSVFIFPPKIKDVLMISLSPIVTCVVVDVSEDDPDVQISWFVNNVEVHTAQTQTHREDYNSTLRVVSALPIQHQDWMSGKEFKCKVNNKDLGAPIERTISKPKGSVRAPQVYVLPPPEEEMTKKQVTLTCMVTDFMPEDIYVEWTNNGKTELNYKNTEPVLDSDGSYFMYSKLRVEKKNWVERNSYSCSVVHEGLHNHHTTKSFSRTPGK
modifications: Light chain amino acid sequence; Heavy chain amino acid sequence
Regarding B1, the IC50 in the test with OVCAR-3 was greater than 1000 nM. For the same molecule, in the test with human FSHR (supernatant containing CAN001 antibody, APC goat anti-mouse IgG secondary, GFP-expressing cells as negative control), the “staining of FSHR-expressing versus GFP-expressing HEK293T cells” value was “specifically stained FHSR-expressing cells but not GFP-expressing cells”. Besides, the “positive stained rate of the HEK293T cells” value amounted to 30.02% in the test with human FSHR (supernatant from mass ratio pcDNA3.1_CAN001 HC to LC 1:1), 38.3% in the test with human FSHR (supernatant from mass ratio pcDNA3.1_CAN001 HC to LC 1:2) and 34.75% in the test with human FSHR (supernatant from mass ratio pcDNA3.1_CAN001 HC to LC 1:3).
